Reference: patent US20100151003A1
Bridges are numbered along the chain shown (N, C = ends). Where no end group is shown, it is not given here. DSPE = distearoylphosphatidylethanolamine; PEG3400 = polyethylene glycol, 3400 Da; PEG = not defined here

Experiments:
[1] = target: human EGFR on tumor cells (human) (UniProt P00533); experiment: cell-based or functional assay
[2] = target: human EGFR on tumor cells (human) (UniProt P00533); experiment: FACS, A431 cells preincubated with 2 ug EGF, 2 uM bio-P190:avidin complex, 4 °C

Row | staining, fold over background (fold over background) [2] | Binder | IC50 D4 (ug/ml), cell killing of MDA-MB-468 cells, 1 h treatment [1] [µg/mL] | IC50 D6 (ug/ml), cell killing of MDA-MB-468 cells, 1 h treatment [1] [µg/mL]
1 |  | {DSPE-PEG3400}-DPCTWEVWGRECLQ (disulfide 3-12; not fully specified; also: inserted in liposomes) [P190-PEG-DSPE conjugate inserted in STEALTH liposomes] | 120 | 35
2 | 20 | DPCTWEVWGRECLQ-{PEG-biotin} (disulfide 3-12 (inferred); reading uncertain) [Biotinylated-PEGylated P190] |  | 
